According to patent US20190276509A1 (Memorial Sloan Kettering, published 2019):
No end group written: not given here.

What was measured:
[1] = target: purified recombinant CBP KIX domain (Homo sapiens (Human)) (UniProt Q92793); assay: microscale thermophoresis (MST), FITC-peptide fixed, purified KIX titrated, n=3
[2] = target: purified recombinant CBP KIX domain (Homo sapiens (Human)) (UniProt Q92793); assay: microscale thermophoresis (MST), FITC-peptide at fixed concentration, purified KIX titrated; concentration read is that of KIX
[3] = target: T1, purified recombinant CBP KIX domain (Homo sapiens (Human), UniProt Q92793 587-666); assay: microscale thermophoresis (MST), FITC-peptide at fixed concentration, purified KIX titrated
T1 construct: Linker residues may remain after the thrombin cut; also called purified KIX
T1 sequence (Q92793 587-666 limits assumed): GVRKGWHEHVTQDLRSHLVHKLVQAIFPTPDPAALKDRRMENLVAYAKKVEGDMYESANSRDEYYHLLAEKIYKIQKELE

[4] = target: T1, purified recombinant CBP KIX domain; assay: microscale thermophoresis (MST), FITC-peptide fixed, purified KIX titrated, n=3
[5] = target: T1, purified recombinant CBP KIX domain; assay: microscale thermophoresis (MST), FITC-peptide at fixed concentration, purified KIX titrated; concentration read is that of KIX

Chain of purified recombinant CBP KIX domain (Homo sapiens (Human)) (Q92793 587-666 limits assumed): as above

Molecule: FITC-MYBMIM (FITC-conjugated D-amino acid retro-inverso peptide, D-aa)
- Kd [1]: 25.4 µM
- EC50 (read off the curve) [2]: 30 µM

B1: FITC-TAT (fluorescein-conjugated TAT peptide, FITC-AHA-YGRKKRRQRRR-NH2) (peptide)
peptide: YGRKKRRQRRR
modifications: not fully specified; N-terminal FITC-aminohexanoic acid (FITC-AHA); C-terminal amide; L-amino acids
- binding result [3]: no binding (tested: about 50 uM KIX)

B2: FITC-MYB (FITC-conjugated L-amino acid peptide, L-aa) (peptide)
peptide: YGRKKRRQRRRGGKRIKELELLLMSTENELK-NH2
modifications: not fully specified (N-terminus); also: conjugated to FITC, site not given here, N-terminal acetyl
notes: It is uncertain whether the labelled peptide carried the TAT part; also called L-aa peptide
- Kd [4]: 5.25 µM
- EC50 (read off the curve) [5]: ~5 µM
